Results published in doi:10.1101/577460.

Target: microtubules (porcine brain Tubulin) (porcine (brain)) (UniProt P02550)
Test: turbidimetry

Sequence of LEM2_(188-212) peptide (Q8NC56 188-212): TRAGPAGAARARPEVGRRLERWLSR
Sequence of LEM2_(1-208) (Q8NC56 1-208): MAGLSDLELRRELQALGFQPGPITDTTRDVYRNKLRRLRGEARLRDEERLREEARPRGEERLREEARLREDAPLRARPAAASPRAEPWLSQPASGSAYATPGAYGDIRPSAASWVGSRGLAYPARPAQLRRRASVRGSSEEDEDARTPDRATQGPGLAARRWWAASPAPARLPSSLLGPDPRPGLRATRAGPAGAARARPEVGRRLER

For “LEM2_(1-208) (from UniProt Q8NC56 1-208) (domain or fragment)”, the half-maximal scattering concentration (MT bundling) was 1.3 µM.
With “LEM2_(188-212) peptide (from UniProt Q8NC56 188-212)” the half maximal concentration (MT bundling) was 85.1 µM.
